Source: PMC6555819, “Comprehensive study of nuclear receptor DNA binding provides a revised framework for understanding receptor specificity”

B1: NRC3_wobSeed130_DR5_G14T_o1 (dsDNA)
DNA 1: GCCTCGAAAGGTCTTGCTCAGGTGAGTATACCAAACGCGATTGACAGCGTAGAATGAAGG
DNA 2: CCTTCATTCTACGCTGTCAATCGCGTTTGGTATACTCACCTGAGCAAGACCTTTCGAGGC
B2: NRC3_random_hg19_274_o1 (dsDNA)
DNA 1: GCTTCGTGCCCTTCCCTTGGACAGACTCCCTTGGCAGCGATTGACAGCGTAGAATGAAGG
DNA 2: CCTTCATTCTACGCTGTCAATCGCTGCCAAGGGAGTCTGTCCAAGGGAAGGGCACGAAGC
B3: NRC3_random_hg19_30_o1 (dsDNA)
DNA 1: GCTGGAATGCAGTGGCACGATCACACATCACTGCAAGCGATTGACAGCGTAGAATGAAGG
DNA 2: CCTTCATTCTACGCTGTCAATCGCTTGCAGTGATGTGTGATCGTGCCACTGCATTCCAGC
B4: NRC3_wobSeed17_DR0_T18C_o1 (dsDNA)
DNA 1: GCATATGTAGGTTAGGGCCATTCAGAAAGTAGGGAAGCGATTGACAGCGTAGAATGAAGG
DNA 2: CCTTCATTCTACGCTGTCAATCGCTTCCCTACTTTCTGAATGGCCCTAACCTACATATGC
B5: NRC3_wobSeed17_DR0_T18A_o1 (dsDNA)
DNA 1: GCATATGTAGGTTAGGGACATTCAGAAAGTAGGGAAGCGATTGACAGCGTAGAATGAAGG
DNA 2: CCTTCATTCTACGCTGTCAATCGCTTCCCTACTTTCTGAATGTCCCTAACCTACATATGC
B6: NRC3_random_hg19_251_o1 (dsDNA)
DNA 1: GCCTGTGGAATCCAACATGCCAAATGCTTGCTTGAGGCGATTGACAGCGTAGAATGAAGG
DNA 2: CCTTCATTCTACGCTGTCAATCGCCTCAAGCAAGCATTTGGCATGTTGGATTCCACAGGC
B7: NRC3_random_hg19_370_o1 (dsDNA)
DNA 1: GCTTTCTTTCTCTCTTGTCTGATTGCTCTGGCTAGAGCGATTGACAGCGTAGAATGAAGG
DNA 2: CCTTCATTCTACGCTGTCAATCGCTCTAGCCAGAGCAATCAGACAAGAGAGAAAGAAAGC
B8: NRC3_random_hg19_191_o1 (dsDNA)
DNA 1: GCAGGAGAGACAGAGGAAGAGATGTGACATCAGAAGGCGATTGACAGCGTAGAATGAAGG
DNA 2: CCTTCATTCTACGCTGTCAATCGCCTTCTGATGTCACATCTCTTCCTCTGTCTCTCCTGC
B9: NRC3_random_hg19_125_o1 (dsDNA)
DNA 1: GCCAACCTACCAAACCATAACCAGTGTGTTTGCTCCGCGATTGACAGCGTAGAATGAAGG
DNA 2: CCTTCATTCTACGCTGTCAATCGCGGAGCAAACACACTGGTTATGGTTTGGTAGGTTGGC
B10: NRC3_random_hg19_161_o1 (dsDNA)
DNA 1: GCTCTGTGGCCTCGGCTCTCCAGGACTCGGAGGCTCGCGATTGACAGCGTAGAATGAAGG
DNA 2: CCTTCATTCTACGCTGTCAATCGCGAGCCTCCGAGTCCTGGAGAGCCGAGGCCACAGAGC
B11: NRC3_wobSeed74_DR3_G20C_o1 (dsDNA)
DNA 1: GCTCTAGTTGGTCACGGAGCTCACACACGACGGGTAGCGATTGACAGCGTAGAATGAAGG
DNA 2: CCTTCATTCTACGCTGTCAATCGCTACCCGTCGTGTGTGAGCTCCGTGACCAACTAGAGC
B12: NRC3_random_hg19_409_o1 (dsDNA)
DNA 1: GCGACTGCACTCCAGCCTGGGTGACACAACAAGACTGCGATTGACAGCGTAGAATGAAGG
DNA 2: CCTTCATTCTACGCTGTCAATCGCAGTCTTGTTGTGTCACCCAGGCTGGAGTGCAGTCGC
B13: NRC3_random_hg19_17_o1 (dsDNA)
DNA 1: GCCTGCAGTTTCACTTTGCATGTCTTCTTTCCTCAAGCGATTGACAGCGTAGAATGAAGG
DNA 2: CCTTCATTCTACGCTGTCAATCGCTTGAGGAAAGAAGACATGCAAAGTGAAACTGCAGGC
B14: NRC3_wobSeed81_DR3_C22A_o1 (dsDNA)
DNA 1: GCATCTCTAGGTAACCAAGTTAAGTGAATGCCGAACGCGATTGACAGCGTAGAATGAAGG
DNA 2: CCTTCATTCTACGCTGTCAATCGCGTTCGGCATTCACTTAACTTGGTTACCTAGAGATGC
B15: NRC3_wobSeed125_DR5_G10C_o1 (dsDNA)
DNA 1: GCCCTTACGCGTCACTGACAGGTTATAGCATTTGGAGCGATTGACAGCGTAGAATGAAGG
DNA 2: CCTTCATTCTACGCTGTCAATCGCTCCAAATGCTATAACCTGTCAGTGACGCGTAAGGGC
B16: NRC3_wobSeed125_DR5_G11C_o1 (dsDNA)
DNA 1: GCCCTTACGGCTCACTGACAGGTTATAGCATTTGGAGCGATTGACAGCGTAGAATGAAGG
DNA 2: CCTTCATTCTACGCTGTCAATCGCTCCAAATGCTATAACCTGTCAGTGAGCCGTAAGGGC
B17: NRC3_wobSeed114_DR4_G11A_o1 (dsDNA)
DNA 1: GCAATACAGGATCATCGTAGGCCAGAGTACGCACAGGCGATTGACAGCGTAGAATGAAGG
DNA 2: CCTTCATTCTACGCTGTCAATCGCCTGTGCGTACTCTGGCCTACGATGATCCTGTATTGC
B18: NRC3_wobSeed18_DR0_C13A_o1 (dsDNA)
DNA 1: GCGATACAGGGTAAAGGCCAGAGTACGCGTATTGATGCGATTGACAGCGTAGAATGAAGG
DNA 2: CCTTCATTCTACGCTGTCAATCGCATCAATACGCGTACTCTGGCCTTTACCCTGTATCGC
B19: NRC3_wobSeed100_DR4_A24T_o1 (dsDNA)
DNA 1: GCCCTACTGGGCCACGAAAGGTCTTTGATTCAGTGAGCGATTGACAGCGTAGAATGAAGG
DNA 2: CCTTCATTCTACGCTGTCAATCGCTCACTGAATCAAAGACCTTTCGTGGCCCAGTAGGGC
B20: NRC3_wobSeed93_DR3_T12A_o1 (dsDNA)
DNA 1: GCAGTCAAAGTACATCTAGGTAACGTAAGATATGCTGCGATTGACAGCGTAGAATGAAGG
DNA 2: CCTTCATTCTACGCTGTCAATCGCAGCATATCTTACGTTACCTAGATGTACTTTGACTGC
B21: NRC3_random_hg19_154_o1 (dsDNA)
DNA 1: GCAAGCATAGCTTTGAGAGCAGTAAAGTGGTTCATTGCGATTGACAGCGTAGAATGAAGG
DNA 2: CCTTCATTCTACGCTGTCAATCGCAATGAACCACTTTACTGCTCTCAAAGCTATGCTTGC
B22: NRC3_wobSeed58_DR2_C13G_o1 (dsDNA)
DNA 1: GCATCGAAAGGTGGTGAGGTGAGTATACAGAAAGGCGCGATTGACAGCGTAGAATGAAGG
DNA 2: CCTTCATTCTACGCTGTCAATCGCGCCTTTCTGTATACTCACCTCACCACCTTTCGATGC
B23: NRC3_wobSeed98_DR4_G20T_o1 (dsDNA)
DNA 1: GCACTAGTTGGTCAGCTGATGTCACACACAATTCGGGCGATTGACAGCGTAGAATGAAGG
DNA 2: CCTTCATTCTACGCTGTCAATCGCCCGAATTGTGTGTGACATCAGCTGACCAACTAGTGC
B24: NRC3_wobSeed142_DR5_G21T_o1 (dsDNA)
DNA 1: GCATACCAAGGTGATCGTGATGTCGTTGATACTAACGCGATTGACAGCGTAGAATGAAGG
DNA 2: CCTTCATTCTACGCTGTCAATCGCGTTAGTATCAACGACATCACGATCACCTTGGTATGC

These binders were tested against VDR:RXRa (Homo sapiens, UniProt P11473;P19793 full;full) (assay: no ligand; PBM; 270 nM : 90 nM RXRa; PBS pH 7.4, 2% milk, 0.02% Triton X-100, 1 mM DTT, BSA, 0.4 mg/ml salmon testes DNA). Conditions: tags: His kept;His cleaved; copies: 1;1; label: surface-attached array probe.
Sequence of VDR:RXRa (P11473 whole entry, chain 1 of 2): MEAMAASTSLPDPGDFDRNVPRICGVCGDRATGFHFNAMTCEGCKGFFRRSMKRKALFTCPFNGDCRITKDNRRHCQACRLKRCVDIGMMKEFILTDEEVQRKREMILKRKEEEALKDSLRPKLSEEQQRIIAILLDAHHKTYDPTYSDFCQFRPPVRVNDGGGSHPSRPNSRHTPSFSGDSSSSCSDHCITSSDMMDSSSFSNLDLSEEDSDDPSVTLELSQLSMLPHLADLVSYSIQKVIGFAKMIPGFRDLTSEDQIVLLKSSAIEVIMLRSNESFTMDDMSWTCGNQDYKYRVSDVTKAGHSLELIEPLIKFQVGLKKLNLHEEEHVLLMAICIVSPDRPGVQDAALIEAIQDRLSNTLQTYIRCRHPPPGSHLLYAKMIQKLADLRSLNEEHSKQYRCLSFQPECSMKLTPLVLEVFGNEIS
Sequence of VDR:RXRa (P19793 whole entry, chain 2 of 2): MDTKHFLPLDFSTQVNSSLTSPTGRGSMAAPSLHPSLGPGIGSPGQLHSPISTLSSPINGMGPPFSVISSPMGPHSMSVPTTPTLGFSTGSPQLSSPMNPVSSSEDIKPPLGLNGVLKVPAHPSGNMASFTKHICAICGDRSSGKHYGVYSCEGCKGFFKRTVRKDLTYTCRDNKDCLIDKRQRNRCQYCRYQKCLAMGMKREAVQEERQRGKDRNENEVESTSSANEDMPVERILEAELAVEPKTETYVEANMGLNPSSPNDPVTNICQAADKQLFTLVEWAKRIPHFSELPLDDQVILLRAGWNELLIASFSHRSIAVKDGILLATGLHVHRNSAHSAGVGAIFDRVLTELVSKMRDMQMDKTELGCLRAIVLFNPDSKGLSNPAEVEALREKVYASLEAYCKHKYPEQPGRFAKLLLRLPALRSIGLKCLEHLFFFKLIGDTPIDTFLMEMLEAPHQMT
Outline: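 The probes on custom Agilent 4×180K protein-binding microarrays were double-stranded, with 34-nt variable regions bearing direct-repeat seeds, single-nucleotide variants, half-site ablations and random human genomic background sequences. Incubation lasted 1 h with ligand-free nuclear receptor dimers in PBS pH 7.4, 2% milk, 0.02% Triton X-100, 1 mM DTT, 0.2 mg/mL BSA and 0.4 mg/ml salmon testes DNA. Antibodies against each partner (one per run) detected bound dimers, and fluorescence scans were regression-normalized. Binding z-scores take the random background probes as reference.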

Going from B1 to B2, the binding signal rises from 0.2 PBM z-score against 500 random probes to 0.25 PBM z-score against 500 random probes.

Going from B3 to B4, the binding signal rises from -0.46 PBM z-score against 500 random probes to 0.42 PBM z-score against 500 random probes.

Going from B5 to B6, the binding signal falls from 0.41 PBM z-score against 500 random probes to -0.19 PBM z-score against 500 random probes.

Compared with B7, B8 is lower in binding signal: 0.44 PBM z-score against 500 random probes for the first, 0.21 PBM z-score against 500 random probes for the second.

Going from B9 to B10, the binding signal falls from 0.33 PBM z-score against 500 random probes to -0.38 PBM z-score against 500 random probes.

Compared with B11, B12 is lower in binding signal: 0.37 PBM z-score against 500 random probes for the first, -0.08 PBM z-score against 500 random probes for the second.

First: B13
Second: B14
The binding signal of the first is lower: 0.19 PBM z-score against 500 random probes for the first, 0.37 PBM z-score against 500 random probes for the second.

Going from B15 to B16, the binding signal falls from 0.17 PBM z-score against 500 random probes to 0.16 PBM z-score against 500 random probes.

First: B17
Second: B18
The binding signal of the first is higher: 0.25 PBM z-score against 500 random probes for the first, 0.02 PBM z-score against 500 random probes for the second.

Compared with B19, B20 is higher in binding signal: -0.14 PBM z-score against 500 random probes for the first, 0.15 PBM z-score against 500 random probes for the second.

Going from B21 to B22, the binding signal rises from -0.41 PBM z-score against 500 random probes to 0.28 PBM z-score against 500 random probes.

Compared with B23, B24 is higher in binding signal: 0.23 PBM z-score against 500 random probes for the first, 0.3 PBM z-score against 500 random probes for the second.
